In patent US10829528B2, “Therapeutic agents for neurological and psychiatric disorders” (VIB VZW, priority 2016, dated 2020):

Assays:
[1] = tested on: cultured hippocampal neurons; experiment: FM1-43 dye labeling of presynaptic vesicle recycling; type: cell-based, mouse
Protocol: We assessed the effect of sAPPα on synaptic vesicle recycling (ref6) using the activity-dependent dye FM1-43. We measured density (D) and intensity (ΔF) of FM1-43 uptake in presynaptic vesicles turned over by stimulation of 30 action potentials (APs) at a rate of 1 Hz in cultured hippocampal neurons.
The experiments were performed in mature (15-28 days in vitro) cultures. Hippocampal neurons were imaged using a FV1000 spectral Olympus confocal microscope using a 60×1.2 NA water immersion objective. The experiments were conducted at room temperature in extracellular Tyrode solution containing (in mM): NaCl, 145; KCl, 3; glucose, 15; HEPES, 10; MgCl2, 1.2; CaCl2), 1.2; pH adjusted to 7.4 with NaOH. For FM-based imaging and analysis, activity-dependent FM1-43 (10 μM) styryl dye was used to estimate basal synaptic vesicle recycling using previously described protocol48. Briefly, action potentials were elicited by passing 50 mA constant current for 1 ms through two platinum wires, separated by ˜7 mm and close to the surface of the coverslip. The extracellular medium contained non-selective blocker of glutamate receptors (0.5 mM kynurenic acid) to block recurrent neuronal activity. 30 stimuli at 1 Hz were applied during FM1-43 loading, while 800 stimuli at 2 Hz during unloading. The fluorescence of individual synapses was determined from the difference between images obtained after staining and after destining (ΔF). Detection of signals was done using custom-written scripts in MATLAB (Mathworks) as described before48.

[2] = tested on: App/Aplp1 dKO primary hippocampal neurons; experiment: mEPSCs & mIPSCs in App/Aplp1 dKO primary hippocampal cultures; type: cell-based, mouse
Protocol: mEPSCs & mIPSCs are measured in cultured primary hippocampal neurons at baseline and following acute application of agonists. Excitatory terminals selectively express the sushi domain-containing GABABR1a isoform (ref18), where it functions to inhibit neurotransmitter release (ref 24). Acute exposure of primary hippocampal neurons from wild type mice to 30μM baclofen, a GABABR agonist, or 250 nM sAPPα (Fc cleaved) reduces the frequency of miniature excitatory postsynaptic currents (mEPSCs) by 68% (FIG. 8 a,b) and 39% (FIG. 8 c,d), respectively, with no effect on mEPSC amplitude (FIG. 8e). […]
Single neurons from wild type or APP/APLP1 null mutant embryos (E18) were recorded within the large neuronal network at DIV 12-15. […] Spontaneous events were detected using Mini Analysis program (Synaptosoft). mEPSCs and mIPSCs were separated on the basis of their distinct decay kinetics, using a threshold of 5 ms47. Baseline was determined from an average of 60 sec of recordings prior to protein or drug treatment. Effect of treatment was determined from an average of 30 sec recordings after 140 sec of protein or drug treatment.

[3] = molecular target: T1, sushi1 domain of GABABR1a (Homo sapiens, UniProt Q9UBS5); experiment: BioLayer Interferometry binding of sAPPα to sushi domains
T1 construct: made in house
T1 sequence (Q9UBS5 26-97): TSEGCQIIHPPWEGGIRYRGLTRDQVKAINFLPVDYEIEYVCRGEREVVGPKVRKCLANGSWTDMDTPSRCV
From the text: We first determined which GABAB subunit and isoform sAPPα bound. The GABABR is comprised of two subunits, the GABABR1 and the GABABR2 subunit. GABABR1 is present as two main isoforms (1a and 1b), with the only difference between these isoforms being the presence of two protein-binding sushi repeats in the ectodomain of GABABR1a (FIG. 1A-B). […] The sequence of the Sushi domain 1 is […].

B1: sAPPα: soluble amyloid precursor protein α ectodomain; mouse APP695 18-612aa, Fc tag cleaved (protein)
chain: LEVPTDGNAGLLAEPQIAMFCGKLNMHMNVQNGKWESDPSGTKTCIGTKEGILQYCQEVYPELQITNVVEANQPVTIQNWCKRGRKQCKTHTHIVIPYRCLVGEFVSDALLVPDKCKFLHQERMDVCETHLHWHTVAKETCSEKSTNLHDYGMLLPCGIDKFRGVEFVCCPLAEESDSVDSADAEEDDSDVWWGGADTDYADGGEDKVVEVAEEEEVADVEEEEADDDEDVEDGDEVEEEAEEPYEEATERTTSTATTTTTTTESVEEVVRVPTTAASTPDAVDKYLETPGDENEHAHFQKAKERLEAKHRERMSQVMREWEEAERQAKNLPKADKKAVIQHFQEKVESLEQEAANERQQLVETHMARVEAMLNDRRRLALENYITALQAVPPRPHHVFNMLKKYVRAEQKDRQHTLKHFEHVRMVDPKKAAQIRSQVMTHLRVIYERMNQSLSLLYNVPAVAEEIQDEVDELLQKEQNYSDDVLANMISEPRISYGNDALMPSLTETKTTVELLPVNGEFSLDDLQPWHPFGVDSVPANTENEVEPVDARPAADRGLTTRPGSGLTNIKTEEISEVKMDAEFGHDSGFEVRHQK
B1 was tested, and the “reduction of total presynaptic strength (S=ΔF×D)” value ([1]; 1 μM, 15 min after addition, 30 APs at 1 Hz) was 57%, the “effect on presynaptic vesicle recycling (in words)” value ([1]; FM1-43, sAPPαΔExD at 1 μM) was “dose dependent manner” and the “effect on mEPSC frequency” value [2] was “reduces”. For the same molecule, the “effect on mIPSC frequency” value [2] was “reduces” and the “binding of sAPPα to Sushi 1 domain by BioLayer Interferometry” value [3] was “direct binding”.
